{"source": "paper PMC3374832", "about": "“The Structure of the Oligomerization Domain of Lsr2 from Mycobacterium tuberculosis Reveals a Mechanism for Chromosome Organization and Protection” (PLoS ONE, 2012)", "target": "the molecule itself", "experiment": "SDS-PAGE"}
{"protein": "full-length Lsr2 from Mycobacterium tuberculosis (natural protein, Lsr2 (Rv3597c) of Mycobacterium tuberculosis H37Rv, full length; also called Rv3597c) not shown", "values": [{"measurement": "binding result", "result": "binds"}]}
